Results published in publication PMC10480042 (ACS applied materials & interfaces, 2023).

Target: Aβ42
Assay: SPR

HGVVFLHVTYV [Spike1058 (1058HGVVFLHVTYV1068), fragment of the SARS-CoV-2 spike protein]
Kd: 82.6 nM
